In publication PMC3474183:

Target: lymphocyte-derived soluble LIGHT (TNFSF 14) (human (endogenous in PBMC))
Assay: SEC

stoichiometry N: 3
Substance: lymphocyte-derived soluble LIGHT (TNFSF 14) (ligand)
